Test results reported in article doi:10.1101/2021.10.25.465661 (bioRxiv, 2021).

Target: the molecule itself
Experiment: SEC-MALS

B1: Qin eTud3 (Qin 959-1195) (domain or fragment, Drosophila melanogaster, UniProt Q9VE55 959-1195, looked up)
chain: VRPVELSPYRMPDNTERNKRTTVNILYVRKPDEFYVTLPHFQKAINNLQKSVQKAAAAMYQNMLPRTDWQVGDMCYARVQANCDSQALWYRGVVTGVIPPGITCPIVRYQVHLRDLGELIDDVHSSSLANIDEADMRISSSAKRCHLHGIRPIGDEWSKDAIDFFMDQLKAYNEIHVTGRGRTENSLSVILWGSLSILTGPFSPATIKYVNINKALLMAGMAEKDHNSDSEDDQQSM
B1 was tested, and the “stoichiometry N” value was 2.
